# Data published in paper PMC3100534 (Nanomedicine : nanotechnology, biology, and medicine, 2011).
# How the values were obtained:
# [1] = assay type: physicochemical; settings: N = 90/x, ~90 DSPE-PEG2000 monomers per SSM, x = lipid molecules at saturation
# [2] = cited from earlier work
substance,measurement,setting,value
Human neuropeptide Y [NPY],maximal number of NPY molecules that could self-associate with one SSM,[1],three
same,half-life in vivo,[2],minutes
